System: Escherichia coli TOP10
Assay: shrunken log2 fold change of peptide-encoding DNA abundance (4.5 h post-induction vs induction); higher = less antimicrobial activity (less host growth inhibition)
Conditions: time post-induction: 4.5 h; library: site-saturation at positions 5, 18, 19, 20
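Note: peptides expressed intracellularly from a pBAD plasmid library in pooled LB shake-flask culture, induced with 0.3% L-arabinose, DNA abundance read by NGS, three biological replicates, DESeq2 with apeglm shrinkage.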

Sequence | shrunken log2 fold change
RRIRPRPPRLPRPRPRPHHQPRP | -0.399
RRIRARPPRLPRPRPRPQMMPRP | 0.129
RRIRDRPPRLPRPRPRPKNCPRP | -0.15
RRIRPRPPRLPRPRPRPYRLPRP | -0.136
RRIRARPPRLPRPRPRPAFEPRP | 0.702
RRIRFRPPRLPRPRPRPRDGPRP | 1.36
RRIRLRPPRLPRPRPRPKLDPRP | -0.0265
RRIRWRPPRLPRPRPRPFQQPRP | -0.0106
RRIRVRPPRLPRPRPRPSWKPRP | -0.0781
RRIRNRPPRLPRPRPRPVEPPRP | 0.173
RRIRYRPPRLPRPRPRPMGVPRP | -0.762
RRIRPRPPRLPRPRPRPCDWPRP | 0.0592
RRIRCRPPRLPRPRPRPVTWPRP | -0.417
RRIRSRPPRLPRPRPRPCGPPRP | 0.118
RRIRFRPPRLPRPRPRPSKWPRP | -0.273
RRIRMRPPRLPRPRPRPSCGPRP | 0.687
RRIRKRPPRLPRPRPRPTSFPRP | -0.044
RRIRIRPPRLPRPRPRPSFFPRP | -0.654
RRIRIRPPRLPRPRPRPLPIPRP | -0.0341
RRIRYRPPRLPRPRPRPHISPRP | -0.317
RRIRWRPPRLPRPRPRPFCPPRP | -0.318
RRIRGRPPRLPRPRPRPPYFPRP | 0.0555
RRIRPRPPRLPRPRPRPGCTPRP | 0.104
RRIRWRPPRLPRPRPRPIVCPRP | 0.0105
RRIRCRPPRLPRPRPRPNFAPRP | -0.098

Sequence | shrunken log2 fold change
RRIRRRPPRLPRPRPRPIQQPRP | -0.0495
RRIRIRPPRLPRPRPRPSPYPRP | -0.396
RRIRQRPPRLPRPRPRPMMTPRP | 0.0172
RRIRDRPPRLPRPRPRPRGCPRP | 0.786
RRIRCRPPRLPRPRPRPYKRPRP | -0.909
RRIRTRPPRLPRPRPRPRYCPRP | -0.116
RRIRHRPPRLPRPRPRPEPLPRP | 0.0544
RRIRPRPPRLPRPRPRPNMLPRP | -0.367
RRIRQRPPRLPRPRPRPQNRPRP | -0.0176
RRIRQRPPRLPRPRPRPGDPPRP | 0.0572
RRIRPRPPRLPRPRPRPTCEPRP | 0.252
RRIRPRPPRLPRPRPRPQARPRP | 0.208
RRIRGRPPRLPRPRPRPRYAPRP | 0.399
RRIRRRPPRLPRPRPRPFVYPRP | -0.0209
RRIRCRPPRLPRPRPRPFTVPRP | -0.456
RRIRDRPPRLPRPRPRPEPIPRP | -0.0153
RRIRSRPPRLPRPRPRPAFHPRP | -0.0038
RRIRGRPPRLPRPRPRPEGTPRP | 1.55
RRIRHRPPRLPRPRPRPPPNPRP | 0.814
RRIRNRPPRLPRPRPRPQNRPRP | -0.184
RRIRQRPPRLPRPRPRPWWMPRP | -0.0322
RRIRIRPPRLPRPRPRPYPSPRP | -0.00978
RRIRRRPPRLPRPRPRPCVQPRP | 0.171
RRIRSRPPRLPRPRPRPNRTPRP | -0.0602
RRIRKRPPRLPRPRPRPGPSPRP | 2.27

Sequence | shrunken log2 fold change
RRIRRRPPRLPRPRPRPWVSPRP | -0.0738
RRIRARPPRLPRPRPRPTYMPRP | -0.36
RRIRSRPPRLPRPRPRPSCNPRP | -0.377
RRIRQRPPRLPRPRPRPRHPPRP | 0.283
RRIRDRPPRLPRPRPRPPHFPRP | 0.173
RRIRTRPPRLPRPRPRPHFTPRP | -0.149
RRIRLRPPRLPRPRPRPTHKPRP | 0.38
RRIRWRPPRLPRPRPRPRADPRP | 0.667
RRIRYRPPRLPRPRPRPRHCPRP | -0.251
RRIRMRPPRLPRPRPRPPQWPRP | 0.982
RRIRVRPPRLPRPRPRPSIPPRP | -0.52
RRIRIRPPRLPRPRPRPEVDPRP | -0.0435
RRIRNRPPRLPRPRPRPFVTPRP | -0.274
RRIRSRPPRLPRPRPRPIMAPRP | 0.163
RRIRTRPPRLPRPRPRPDMKPRP | -0.0377
RRIRERPPRLPRPRPRPCPEPRP | -0.324
RRIRARPPRLPRPRPRPWHHPRP | -0.168
RRIRLRPPRLPRPRPRPLLAPRP | 0.188
RRIRYRPPRLPRPRPRPRIWPRP | -0.0174
RRIRARPPRLPRPRPRPCRSPRP | -0.0342
RRIRMRPPRLPRPRPRPSITPRP | -0.0273
RRIRMRPPRLPRPRPRPTGEPRP | 0.0299
RRIRARPPRLPRPRPRPMSRPRP | -0.171
RRIRFRPPRLPRPRPRPRKRPRP | 0.263
RRIRERPPRLPRPRPRPGPGPRP | 0.268

Sequence | shrunken log2 fold change
RRIRMRPPRLPRPRPRPYCDPRP | -0.556
RRIRDRPPRLPRPRPRPWTLPRP | -0.424
RRIRTRPPRLPRPRPRPCFFPRP | -0.202
RRIRMRPPRLPRPRPRPLEFPRP | -0.102
RRIRDRPPRLPRPRPRPRIRPRP | -0.0469
RRIRERPPRLPRPRPRPYPSPRP | -0.967
RRIRMRPPRLPRPRPRPNNAPRP | -0.0978
RRIRDRPPRLPRPRPRPRMHPRP | -0.268
RRIRTRPPRLPRPRPRPPWNPRP | -0.288
RRIRCRPPRLPRPRPRPADDPRP | 0.116
RRIRGRPPRLPRPRPRPTPIPRP | 0.79
RRIRFRPPRLPRPRPRPRINPRP | -0.314
RRIRLRPPRLPRPRPRPHPAPRP | 0.12
RRIRDRPPRLPRPRPRPKTRPRP | 0.533
RRIRHRPPRLPRPRPRPFQRPRP | 0.0038
RRIRYRPPRLPRPRPRPILYPRP | -0.679
RRIRIRPPRLPRPRPRPFILPRP | -0.275
RRIRPRPPRLPRPRPRPCQQPRP | -0.119
RRIRIRPPRLPRPRPRPDCEPRP | -0.0193
RRIRDRPPRLPRPRPRPSEFPRP | -0.0277
RRIRIRPPRLPRPRPRPQFFPRP | -0.304
RRIRLRPPRLPRPRPRPQKEPRP | 0.0466
RRIRKRPPRLPRPRPRPGWCPRP | 0.639
RRIRNRPPRLPRPRPRPEGIPRP | 0.0204
RRIRPRPPRLPRPRPRPKQVPRP | -0.0541

Sequence | shrunken log2 fold change
RRIRCRPPRLPRPRPRPLDQPRP | 0.221
RRIRFRPPRLPRPRPRPPEMPRP | 0.0471
RRIRLRPPRLPRPRPRPQHPPRP | -0.132
RRIRLRPPRLPRPRPRPIHKPRP | 0.195
RRIRHRPPRLPRPRPRPNWYPRP | -0.928
RRIRQRPPRLPRPRPRPGVCPRP | -0.126
RRIRWRPPRLPRPRPRPYTDPRP | 0.102
RRIRRRPPRLPRPRPRPMCTPRP | 0.459
RRIRVRPPRLPRPRPRPTNYPRP | -0.519
RRIRIRPPRLPRPRPRPWMMPRP | -0.178
RRIRSRPPRLPRPRPRPSFQPRP | -0.282
RRIRWRPPRLPRPRPRPNLWPRP | 0.587
RRIRMRPPRLPRPRPRPMSSPRP | 0.0418
RRIRYRPPRLPRPRPRPTPAPRP | 0.238
RRIRRRPPRLPRPRPRPPGMPRP | 0.821
RRIRSRPPRLPRPRPRPFQRPRP | 0.101
RRIRQRPPRLPRPRPRPIDFPRP | -0.0381
RRIRERPPRLPRPRPRPEVPPRP | -0.00233
RRIRIRPPRLPRPRPRPCPMPRP | -0.367
RRIRDRPPRLPRPRPRPDMVPRP | 0.00109
RRIRRRPPRLPRPRPRPAAKPRP | 0.267
RRIRQRPPRLPRPRPRPPEHPRP | 0.0412
RRIRVRPPRLPRPRPRPDHTPRP | -0.428
RRIRCRPPRLPRPRPRPCQMPRP | -0.609
RRIRPRPPRLPRPRPRPTPIPRP | 0.336

Sequence | shrunken log2 fold change
RRIRRRPPRLPRPRPRPKANPRP | 0.264
RRIRCRPPRLPRPRPRPVDVPRP | -0.375
RRIRCRPPRLPRPRPRPHHIPRP | -0.88
RRIRHRPPRLPRPRPRPHCAPRP | -0.109
RRIRVRPPRLPRPRPRPVSVPRP | 0.0195
RRIRWRPPRLPRPRPRPSIDPRP | 0.452
RRIRHRPPRLPRPRPRPKNAPRP | -0.223
RRIRIRPPRLPRPRPRPKTNPRP | -0.334
RRIRFRPPRLPRPRPRPKDQPRP | 0.0707
RRIRHRPPRLPRPRPRPKCQPRP | -0.0621
RRIRRRPPRLPRPRPRPPRMPRP | 0.94
RRIRGRPPRLPRPRPRPRHTPRP | 0.7
RRIRERPPRLPRPRPRPHWTPRP | -0.0453
RRIRWRPPRLPRPRPRPLFMPRP | -0.286
RRIRHRPPRLPRPRPRPNDGPRP | -0.134
RRIRLRPPRLPRPRPRPVVFPRP | -0.136
RRIRSRPPRLPRPRPRPFTGPRP | -0.261
RRIRLRPPRLPRPRPRPELKPRP | 0.0568
RRIRVRPPRLPRPRPRPQFIPRP | -0.128
RRIRRRPPRLPRPRPRPAHDPRP | 0.873
RRIRHRPPRLPRPRPRPACMPRP | 0.0463
RRIRARPPRLPRPRPRPFRSPRP | -0.0968
RRIRRRPPRLPRPRPRPYRFPRP | -0.15
RRIRMRPPRLPRPRPRPMPFPRP | 0.221
RRIRRRPPRLPRPRPRPAMSPRP | 0.157

Source: the supplement of paper PMC9112550, “Optimization of the antimicrobial peptide Bac7 by deep mutational scanning” (BMC Biology, 2022)
